# According to patent publication US20180171001A1:
# Residue numbers refer to the chain shown, from its start.
# B1: γ3κ18 (antibody, V domains shown)
# VH: QIHLVQSGTEVKKPGSSVTVSCKAYGVNTFGLYAVSWVRQAPGQRLEYIGQIRRWKSSASHHFRGRVTVSAVDPTGSSPPISSLEIRDLTTDDTAVYFCTTTSTSDYWSGLHNERGTAFSSWGQGTLISVSA
# VL: DIQMTQSPSTLSASVGDTVRISCRASQSITGGWLAWYHQRPGKAPRLLIYRGSRLLGGVPSRFSGSAAGADFTLTIANLQAEDFGTFYCQQYDTYPGTFGQGTKVEVKR
# B2: γ4κ18 (antibody, V domains shown)
# VH: QIHLVQSGTEVKKPGSSVTVSCKAYGVNTFGLYAVNWVRQAPGQSLEYIGQIWRWKSSASHHFRGRVIISAVDLTGSSPPISPLEIKNLTSDDTAVYFCTTTSTSDRWSGLHHDGVMAFSSWGQGTLISVSA
# VL: B1 VL
# B3: γ20κ18 (antibody, V domains shown)
# VH: B2 VH with T19A, H62D, P83S, T101A, S105P, R107Y
# VL: B1 VL
# B4: γ22κ18 (antibody, V domains shown)
# VH: B2 VH with I68L, S77P, P83S, S105Y, R107K
# VL: B1 VL
# B5: γ23κ18 (antibody, V domains shown)
# VH: B2 VH with P83S, R107Y
# VL: B1 VL
# B6: γ46κ18 (antibody, V domains shown)
# VH: B2 VH with S45G, I68L, P83S, L89V, S105Y, R107K, M117V
# VL: B1 VL
# B7: γ52κ18 (antibody, V domains shown)
# VH: B2 VH with I68L, P83S, S105Y
# VL: B1 VL
# B8: γ59κ18 (antibody, V domains shown)
# VH: B2 VH with S45G, I68L, P83S, L89V, S105Y, R107E, G110D
# VL: B1 VL
# B9: γ20κ19 (antibody, V domains shown)
# VH: B2 VH with T19A, H62D, P83S, T101A, S105P, R107Y
# VL: B1 VL with A70T, D71G
# B10: γ15κ61 (antibody, V domains shown)
# VH: B2 VH with P83S, T102A, S105Y, R107K
# VL: B1 VL with V15I, G32N, L34V, S53A, R54A, A70T, A77G
# B11: γ44κ61 (antibody, V domains shown)
# VH: B2 VH with G26E, I68L, P83S, L89V, S105H, R107K
# VL: B1 VL with V15I, G32N, L34V, S53A, R54A, A70T, A77G
# B12: γ46κ61 (antibody, V domains shown)
# VH: B2 VH with S45G, I68L, P83S, L89V, S105Y, R107K, M117V
# VL: B1 VL with V15I, G32N, L34V, S53A, R54A, A70T, A77G
# B13: γ52κ61 (antibody, V domains shown)
# VH: B2 VH with I68L, P83S, S105Y
# VL: B1 VL with V15I, G32N, L34V, S53A, R54A, A70T, A77G
# Biological target: Env of HIV-1 strain 231965.c1 (HIV-1)
# Assay: cell-based or functional assay
row,Binder,neutralization IC50
1,B1,0.163 µg/mL
2,B2,> 15 µg/mL
3,B3,> 15 µg/mL
4,B4,26 µg/mL
5,B5,0.128 µg/mL
6,B6,4.16 µg/mL
7,B7,0.284 µg/mL
8,B8,> 15 µg/mL
9,B9,> 15 µg/mL
10,B10,5.23 µg/mL
11,B11,> 15 µg/mL
12,B12,1.58 µg/mL
13,B13,0.516 µg/mL

# Biological target: Env of HIV-1 strain ZM109F.PB4 (HIV-1)
# Assay: cell-based or functional assay
row,Binder,neutralization IC50
1,B1,> 15 µg/mL
2,B2,> 15 µg/mL
3,B3,> 15 µg/mL
4,B4,> 15 µg/mL
5,B5,> 15 µg/mL
6,B6,> 15 µg/mL
7,B7,> 15 µg/mL
8,B8,> 15 µg/mL
9,B9,> 15 µg/mL
10,B10,> 15 µg/mL
11,B11,> 15 µg/mL
12,B12,> 15 µg/mL
13,B13,> 15 µg/mL

# Biological target: Env of HIV-1 strain PVO.4 (HIV-1)
# Assay: cell-based or functional assay
row,Binder,neutralization IC50
1,B1,0.028 µg/mL
2,B2,> 15 µg/mL
3,B3,> 15 µg/mL
4,B4,> 15 µg/mL
5,B5,0.047 µg/mL
6,B6,2.1 µg/mL
7,B7,0.081 µg/mL
8,B8,> 15 µg/mL
9,B9,> 15 µg/mL
10,B10,1.23 µg/mL
11,B11,> 15 µg/mL
12,B12,0.244 µg/mL
13,B13,0.078 µg/mL

# Biological target: Env of HIV-1 strain X1254_c3 (HIV-1)
# Assay: cell-based or functional assay
row,Binder,neutralization IC50
1,B1,0.616 µg/mL
2,B2,16.2 µg/mL
3,B3,5.22 µg/mL
4,B4,1.58 µg/mL
5,B5,0.545 µg/mL
6,B6,4.2 µg/mL
7,B7,1.57 µg/mL
8,B8,4.07 µg/mL
9,B9,2.99 µg/mL
10,B10,10.9 µg/mL
11,B11,> 15 µg/mL
12,B12,4.46 µg/mL
13,B13,2.57 µg/mL

# Biological target: Env of HIV-1 strain REJO4541.67 (HIV-1)
# Assay: cell-based or functional assay
row,Binder,neutralization IC50
1,B1,0.049 µg/mL
2,B2,> 15 µg/mL
3,B3,> 15 µg/mL
4,B4,> 15 µg/mL
5,B5,0.061 µg/mL
6,B6,> 15 µg/mL
7,B7,2.13 µg/mL
8,B8,1.23 µg/mL
9,B9,> 15 µg/mL
10,B10,2.03 µg/mL
11,B11,> 15 µg/mL
12,B12,0.378 µg/mL
13,B13,0.115 µg/mL

# Biological target: Env of HIV-1 strain H086.8 (HIV-1)
# Assay: cell-based or functional assay
row,Binder,neutralization IC50
1,B1,0.209 µg/mL
2,B2,> 15 µg/mL
3,B3,> 15 µg/mL
4,B4,> 15 µg/mL
5,B5,> 15 µg/mL
6,B6,> 15 µg/mL
7,B7,0.464 µg/mL
8,B8,> 15 µg/mL
9,B9,> 15 µg/mL
10,B10,> 15 µg/mL
11,B11,> 15 µg/mL
12,B12,0.584 µg/mL
13,B13,0.242 µg/mL

# Biological target: Env of HIV-1 strain 250-4 (HIV-1)
# Assay: cell-based or functional assay
row,Binder,neutralization IC50
1,B1,> 15 µg/mL
2,B2,> 15 µg/mL
3,B3,> 15 µg/mL
4,B4,> 15 µg/mL
5,B5,> 15 µg/mL
6,B6,> 15 µg/mL
7,B7,> 15 µg/mL
8,B8,> 15 µg/mL
9,B9,> 15 µg/mL
10,B10,> 15 µg/mL
11,B11,> 15 µg/mL
12,B12,> 15 µg/mL
13,B13,> 15 µg/mL

# Biological target: Env of HIV-1 strain ZM53M.PB12 (HIV-1)
# Assay: cell-based or functional assay
row,Binder,neutralization IC50
1,B1,> 15 µg/mL
2,B2,> 15 µg/mL
3,B3,> 15 µg/mL
4,B4,> 15 µg/mL
5,B5,> 15 µg/mL
6,B6,> 15 µg/mL
7,B7,> 15 µg/mL
8,B8,> 15 µg/mL
9,B9,> 15 µg/mL
10,B10,> 15 µg/mL
11,B11,> 15 µg/mL
12,B12,27.5 µg/mL
13,B13,8.44 µg/mL

# Biological target: Env of HIV-1 strain Du172.17 (HIV-1)
# Assay: cell-based or functional assay
row,Binder,neutralization IC50
1,B1,11.5 µg/mL
2,B2,> 15 µg/mL
3,B3,> 15 µg/mL
4,B4,> 15 µg/mL
5,B5,2.95 µg/mL
6,B6,> 15 µg/mL
7,B7,> 15 µg/mL
8,B8,> 15 µg/mL
9,B9,> 15 µg/mL
10,B10,> 15 µg/mL
11,B11,> 15 µg/mL
12,B12,26.1 µg/mL
13,B13,7.28 µg/mL

# Biological target: Env of HIV-1 strain 3365.v2.c20 (HIV-1)
# Assay: cell-based or functional assay
row,Binder,neutralization IC50
1,B1,> 15 µg/mL
2,B2,> 15 µg/mL
3,B3,> 15 µg/mL
4,B4,> 15 µg/mL
5,B5,> 15 µg/mL
6,B6,> 15 µg/mL
7,B7,> 15 µg/mL
8,B8,> 15 µg/mL
9,B9,> 15 µg/mL
10,B10,> 15 µg/mL
11,B11,> 15 µg/mL
12,B12,> 15 µg/mL
13,B13,> 15 µg/mL

# Biological target: Env of HIV-1 strain 3016.v5.c45 (HIV-1)
# Assay: cell-based or functional assay
row,Binder,neutralization IC50
1,B1,0.057 µg/mL
2,B2,> 15 µg/mL
3,B3,> 15 µg/mL
4,B4,13.3 µg/mL
5,B5,0.047 µg/mL
6,B6,2.99 µg/mL
7,B7,0.129 µg/mL
8,B8,> 15 µg/mL
9,B9,> 15 µg/mL
10,B10,1.21 µg/mL
11,B11,> 15 µg/mL
12,B12,0.383 µg/mL
13,B13,0.182 µg/mL

# Biological target: Env of HIV-1 strain YU2.DG (HIV-1)
# Assay: cell-based or functional assay
row,Binder,neutralization IC50
1,B1,0.07 µg/mL
2,B2,> 15 µg/mL
3,B3,> 15 µg/mL
4,B4,8.23 µg/mL
5,B5,0.117 µg/mL
6,B6,2.36 µg/mL
7,B7,0.265 µg/mL
8,B8,7.71 µg/mL
9,B9,> 15 µg/mL
10,B10,3.44 µg/mL
11,B11,> 15 µg/mL
12,B12,0.918 µg/mL
13,B13,0.408 µg/mL

# Biological target: Env of HIV-1 strain 251-18 (HIV-1)
# Assay: cell-based or functional assay
row,Binder,neutralization IC50
1,B1,> 15 µg/mL
2,B2,> 15 µg/mL
3,B3,> 15 µg/mL
4,B4,> 15 µg/mL
5,B5,1.58 µg/mL
6,B6,> 15 µg/mL
7,B7,0.116 µg/mL
8,B8,25 µg/mL
9,B9,> 15 µg/mL
10,B10,4.66 µg/mL
11,B11,> 15 µg/mL
12,B12,1.84 µg/mL
13,B13,0.273 µg/mL

# Biological target: Env of HIV-1 strain 3415.v1.c1 (HIV-1)
# Assay: cell-based or functional assay
row,Binder,neutralization IC50
1,B1,> 15 µg/mL
2,B2,> 15 µg/mL
3,B3,> 15 µg/mL
4,B4,> 15 µg/mL
5,B5,> 15 µg/mL
6,B6,> 15 µg/mL
7,B7,> 15 µg/mL
8,B8,> 15 µg/mL
9,B9,> 15 µg/mL
10,B10,> 15 µg/mL
11,B11,> 15 µg/mL
12,B12,> 15 µg/mL
13,B13,0.681 µg/mL

# Biological target: Env of HIV-1 strain R1166.c1 (HIV-1)
# Assay: cell-based or functional assay
row,Binder,neutralization IC50
1,B1,0.578 µg/mL
2,B2,> 15 µg/mL
3,B3,20 µg/mL
4,B4,7.31 µg/mL
5,B5,0.708 µg/mL
6,B6,4.1 µg/mL
7,B7,1.35 µg/mL
8,B8,11.7 µg/mL
9,B9,> 15 µg/mL
10,B10,6.55 µg/mL
11,B11,> 15 µg/mL
12,B12,2.58 µg/mL
13,B13,1.64 µg/mL

# Biological target: Env of MuLV
# Assay: cell-based or functional assay
row,Binder,neutralization IC50
1,B1,> 30 µg/mL
2,B2,> 30 µg/mL
3,B3,> 30 µg/mL
4,B4,> 30 µg/mL
5,B5,> 30 µg/mL
6,B6,> 15 µg/mL
7,B7,> 15 µg/mL
8,B8,> 15 µg/mL
9,B9,> 15 µg/mL
10,B10,> 15 µg/mL
11,B11,> 15 µg/mL
12,B12,> 15 µg/mL
13,B13,> 15 µg/mL
